Test [1] addresses mKRb, recombinant fragment spanning the ketoreductase domain from module 7 of MLSB (Mycobacterium ulcerans). The test is described as follows: ITC; ACP species (1 mM) in the syringe injected into mKRb (50 uM) with 5 mM NADPH in the cell; 25 mM HEPES, 50 mM NaCl, 0.01% NaN3, pH 7.5, 30 °C; single binding site model; mean of three technical replicates.
Test [2] shares this target. The test is described as follows: ITC; ACP species (1 mM) in the syringe injected into mKRb (50 uM) with 5 mM NADP+ in the cell; 25 mM HEPES, 50 mM NaCl, 0.01% NaN3, pH 7.5, 30 °C; single binding site model; mean of three technical replicates. In general terms: Isothermal titration calorimetry measures the heat released or taken up as one component is titrated into another.

What is called Kd is the equilibrium constant for the complex coming apart. One may read the stoichiometry N as a count of units in the complex or per binding partner. In the case of “apo mACPb, short B1-type ACP domain from module 7 of MLSB (domain or fragment)”, in test [1], the dissociation constant (Kd) is 2200 nM and the stoichiometry N amounted to 1. Besides, the Kd in test [2] worked out at 2600 nM.

For “apo mH0ACPa, N-terminally extended A1-type ACP domain from module 5 of MLSA1 (from UniProt Q6MZA4 11087-11185) (domain or fragment)”, in test [1], the dissociation constant Kd came to 2200 nM.

On to “holo mACPb, short B1-type ACP domain from module 7 of MLSB with Ppant (domain or fragment)”, for which the results for the dissociation constant (Kd) in test [1] and in test [2] were 750 nM and 610 nM, respectively.

Consider “apo mH0ACPb, N-terminally extended B1-type ACP domain from module 7 of MLSB (domain or fragment)”, for which the equilibrium dissociation constant (Kd) is 1430 nM in test [1] and 1380 nM in test [2].

On to “holo mH0ACPa, N-terminally extended A1-type ACP domain from module 5 of MLSA1 with Ppant (from UniProt Q6MZA4 11087-11185) (domain or fragment)”, for which, in test [1], the equilibrium dissociation constant (Kd) turned out to be 630 nM.

For “holo mH0ACPb, N-terminally extended B1-type ACP domain from module 7 of MLSB with Ppant (domain or fragment)”, the Kd in test [1] came out at 690 nM; in test [2], 710 nM.
